Experiments:
[1] = molecular target: T1, synthetic peptide LKNQNQELPEDVNPAKKENYLSEQD (SEQ ID NO: 2); experiment: ELISA screen of hybridoma clones on peptide
T1 construct: Used to screen the hybridoma clones by ELISA; also called another synthetic peptide
T1 peptide: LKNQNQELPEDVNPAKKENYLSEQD

[2] = molecular target: T2, human advillin-flag (hAvil-flag), exogenously expressed in 293 cells (human, UniProt O75366 1-819); experiment: western blot of lysates of 293 cells transfected with hAvil-flag or vector control
T2 construct: also called exogenous expression of human advillin clone; expression plasmid of human advillin; not shown: flag tag from the p3xFLAG-CMV14 vector
T2 sequence (looked up): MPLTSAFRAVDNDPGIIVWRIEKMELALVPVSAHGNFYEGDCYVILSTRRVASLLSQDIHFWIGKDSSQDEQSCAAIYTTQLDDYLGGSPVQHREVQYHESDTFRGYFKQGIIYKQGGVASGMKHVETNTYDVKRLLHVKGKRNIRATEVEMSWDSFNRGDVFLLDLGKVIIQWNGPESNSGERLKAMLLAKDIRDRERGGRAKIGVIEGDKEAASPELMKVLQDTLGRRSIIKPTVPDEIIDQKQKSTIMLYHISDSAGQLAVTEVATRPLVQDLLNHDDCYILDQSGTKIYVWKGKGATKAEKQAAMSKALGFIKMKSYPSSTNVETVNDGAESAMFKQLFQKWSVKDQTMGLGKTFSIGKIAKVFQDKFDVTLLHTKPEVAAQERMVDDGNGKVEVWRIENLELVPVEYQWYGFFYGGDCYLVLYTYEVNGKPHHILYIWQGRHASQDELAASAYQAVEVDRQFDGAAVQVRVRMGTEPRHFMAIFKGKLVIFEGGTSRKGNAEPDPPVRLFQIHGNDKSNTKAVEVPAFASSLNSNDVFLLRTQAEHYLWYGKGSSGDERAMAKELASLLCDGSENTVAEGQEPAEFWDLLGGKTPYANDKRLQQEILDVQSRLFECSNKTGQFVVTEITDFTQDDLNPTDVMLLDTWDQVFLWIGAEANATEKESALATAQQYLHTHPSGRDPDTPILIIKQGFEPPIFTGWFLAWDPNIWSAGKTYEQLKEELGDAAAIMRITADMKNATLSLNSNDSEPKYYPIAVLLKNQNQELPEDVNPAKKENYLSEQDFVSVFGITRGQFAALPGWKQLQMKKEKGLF
Text: FIG. 6 The monoclonal antibody of human advillin specifically recognized exogenous expression of human advillin in 293 cells. Human advillin clone was tagged with flag, and the construct of human advillin-flag (hAvil-flag) or vector control (flag) were transfected into 293 cells. The lysates were detected with the monoclonal antibody of human advillin and flag antibody respectively. The molecular weight of human advillin is predicted as 92 KDa and the detected signals were corresponded to predicted size of hAvil-flag around 100 KDa. The top signal is supposed as aggregated forms as detected in the flag-antibody recognized signal.
Primary antibodies used in western blot were rabbit polyclonal anti-mouse advillin (1 μg/ml), mouse monoclonal anti-human advillin, and rabbit anti-albumin (1:1000, both GeneTex, San Antonio, Tex., USA). […] Cerebrospinal fluid (CSF) samples or protein from cell lysates separated by SDS-PAGE were transferred onto PVDF membranes by using a Mini Trans-Blot Electrophoretic Transfer Cell (Bio-rad, CA, USA). […] Enhanced chemiluminescence (ECL) involved the Immobilon ECL Kit (Millipore, MA, USA) and signals were detected by using the BioSpectrum Auto Imaging System (UVP, CA, USA). […]

B1: monoclonal antibody of human advillin hAvil, produced by the hybridoma YCC-S1 (antibody, V domains shown)
VH: EVKLEESGGGLVQPGGSLKLSCVASGFAFSNSWMSWVRQSPEKGLEWVAEIRLKSDNYASHYAESVKGRFTISRDDSKSRLYLQMNALRAEDTGIYYCSDGTWFTYWGQGTLVTVST
VL: DIVMSQSPSSLAVSVGEKVTMNCKSSQSLLYRANQKNYLAWYQQKPGQSPKLLIYWASTRESGVPDRFTGSGSGTDFTLTISSVKAEDLAVYYCQQYYSHPFTFGSGTKLKIK
notes: also called mouse monoclonal anti-human advillin; anti-advillin antibody
[1]
  binding result: binds
[2]
  binding result: binds
